# In the DeepSol protein solubility set:
# Test: soluble on expression in E. coli; label from the status in PepcDB or PDB records
row,Sequence,soluble on expression in E. coli
1,GPGSMAVPDDNAEEVELLLSISPEVVCRDPTHSSTLVFLLPFRFVLHVTLPPRGYPDVSRPSLFVAAGPNAHLVNQFSSQLNKALREEVPLGGPMLLHIFTLAQDIATELQRTREAEAQEAKARREAMESEAQLALAEREASSVEVWASDAITDRKSKFVAHMARVDSEAAVREVVMHLRSQKHIAEAAHPTIYAYRFTDSSGVVHHDSDDDGETGAASRIMFLLEQMKVDGYVVVVTRWFGGVLLGPDRFKHIMEVARSILLTIPQREKERGVRDWQDRQ,soluble
2,SLPNGEGLQLKENSESEGVSCHYWSLFDGHAGSGAAVVASRLLQHHITEQLQDIVDILKNSAVLPPTCLGEEPENTPANSRTLTRAASLRGGVGAPGSPSTPPTRFFTEKKIPHECLVIGALESAFKEMDLQIERERSSYNISGGCTALIVICLLGKLYVANAGDSRAIIIRNGEIIPMSSEFTPETERQRLQYLAFMQPHLLGNEFTHLEFPRRVQRKELGKKMLYRDFNMTGWAYKTIEDEDLKFPLIYGEGKKARVMATIGVTRGLGDHDLKVHDSNIYIKPFLSSAPEVRIYDLSKYDHGSDDVLILATDGLWDVLSNEEVAEAITQFLPNCDPDDPHRYTLAAQDLVMRARGVLKDRGWRISNDRLGSGDDISVYVIPLIHGNKLS,not soluble
3,MSLESPELKALVDAGKLPAVEKRLPKEPLVLTPLESVGTYGGTWRTATFGGGDSEIERSIGYTRLVRWNPEWTEVIPDIAKSVEVNDNATEYTFTLREGTRWSDGEPFTADDLVWWNENVLRNTKITPAAPNWLTAGGETVKVEKLADDKVIFKFAAPNGLFLMNMATVRGSDILAAAPAHYLKQFHKDFNPDGIDALVKAAGATDWVQLFNNKIGFPGRWRDLGRPTLDAWVLTAPYNGTTQVVGERNPYYAKVDTAGNQLPYFDRITIDVMQDTQAIILKAISGEIDMQNRFIETTDARTVIVQNQEKGGYGLFIARPAWSNALLITLNQTHKNPALRAVFSNKDFRIGLSYAINREELNQLIYAGQAKPYQAAPREGTALYDEKMATQYLEYNVDLANQYLDKAGLTKHDAEGYRLGQDGKRITFAIDALTGSPIQVDALEMIQRYWRAVGIDMQPRPAERSLIFSRLQNNENDGLGWVGGGGYDFLGLLDPKWYFPHEYESSFATAWGLYYQNPKDPNAQEPSPAAKKQMDLYRQVQEAPTLEKQLAAMKELLAITRDEFYVIGTNLEPDRVGIVKTNMRNVPKVIPSTSFYMTPGPAKPETFYYQQEGHHHHHH,soluble
4,MSEPIRVLVTGAAGQIAYSLLYSIGNGSVFGKDQPIILVLLDITPMMGVLDGVLMELQDCALPLLKDVIATDKEDVAFKDLDVAILVGSMPRREGMERKDLLKANVKIFKSQGAALDKYAKKSVKVIVVGNPANTNCLTASKSAPSIPKENFSCLTRLDHNRAKAQIALKLGVTANDVKNVIIWGNHSSTQYPDVNHAKVKLQGKEVGVYEALKDDSWLKGEFVTTVQQRGAAVIKARKLSSAMSAAKAICDHVRDIWFGTPEGEFVSMGVISDGNSYGVPDDLLYSFPVVIKNKTWKFVEGLPINDFSREKMDLTAKELTEEKESAFEFLSSA,soluble
5,MAHHHHHHMNIPNPRVFLDIAIGGRNAGRMIFELFMDKLPITCENFRCLCTGETGLGYYLKPRWYKNSPIHRIVTDFMFQGGDFNFGNGYGGESIYGQYFRNEKFIYKHSKRGILSMCQTRIKHTNNSQFFVTFKSCPWLDKRHVVLGHLEYGFDTLSFIEEQGTLIGKPKKQVFIYNCGVIPLDKIKYKSADNSDDDYIIPDIEKPLLEKDISINENSDFNELRNMYKYNKHF,not soluble
6,MAQMTMVQAINDALKTELKNDQDVLIFGEDVGVNGGVFRVTEGLQKEFGEDRVFDTPLAESGIGGLAMGLAVEGFRPVMEVQFLGFVFEVFDAIAGQIARTRFRSGGTKTAPVTIRGPFGGGVHTPELHADNLEGILAQSPGLKVVIPSGPYDAKGLLISSIRSNDPVVYLEHMKLYRSFREEVPEEEYTIDIGKANVKKEGNDISIITYGAMVQESMKAAEELEKDGYSVEVIDLRTVQPIDVDTIVASVEKTGRAVVVQEAQRQAGVGAAVVAELSERAILSLEAPIGRVAAADTIYPFTQAENVWLPNKNDIIEKAKETLEF,not soluble
7,SAEKQAGLVGEPDPEGSSPGTSESWNYDSNCVFCRVAAGQEPKTELFHCENEDLVCFKDIKPAALYHYLVVPKKHIGSCKDLNKDHIEMVESMVAAGKTMLERNNFTDFTDVRMGFHVPPFCSISHLHLHVIAPVKEFGFLSKLVYRQDSYWFVTVDYLLEKLRK,soluble
8,MGSDKIHHHHHHMNPNTVPPAARDVAWIKHALQTAIELEYSTLPLYLSAMFSLEVQNYTAYNAIRSIAMEEMVHMAIAANLLAALGGSPQFKPIQIAYPTTGLPGGAEPDLHVGLARYSKPQLKNFLRIETPGFLLRQLGRDEGYPTIAAFYESIRSAIARNANAVRAAVQAGGPANQVGDDIGFTTVTYKPGVDPVESFDAGIGEILQQGEGSGRGDVFAGNPFEDEESHYARFAELYYGARYQAPSPPVDFNPKNEPLFFGGPAIAAPVVVNTLAVPRDGYARILALDPERDTVESDLNAFDSGFSKILSTLDAVWNGPSSTSWKTLGAAVHGMVDLRVLSCFNIMRHAVPAAAVSQLAELYPDEIGFLRTYTDLSKPVFYGPRFVNVNGKQAS,not soluble
9,MQEVKQWPVKIMLVHPKAPFLKGEKIVIAADCAVLVNRDIRDRFESDAVIIGCPMLEDPRRMFERIKMIVAESDAKLEVYTMEVPCCHALHLMVEKAKEEHGKQTESEKYIVRVSGAVEPYSKKIDESMIEAERRAHRGH,not soluble
10,MQITQGQRIPLSTLIQGNDLTLSIVIKSAHVIDYVCFGVDANGKLSDDRYMIFFNQPTSPCNSVKQANGGDFQLALDSLPASIDRLVFTASIDGAGVMSDIQASHFSIQHQGREVARGEFSGATFAAEKAIMVADIYRKNGEWRIASNLQGYNAGLDALVGHFGGVADAPPAAPAAPARISLEKKIADAAPQLISLAKKAQVSLEKAKLTDTKARVGLVLDASGSMNPQYTRGHVQEVVDRLIPLAVHFDDDGALDCWAFGAKPQQLNAITLKNFQNFIKTDHGGWKDWELGSRINDEPKAMRMVIDYYKKSGDKTPVYILFISDGGVHQDREITKLMIEAAKLPIFWQFVGLGGRGYGILEKLDDMGGRVVDNCNFFALDRLDEVPEEKLYDLLMEEFPDWLNAAKGAGIL,not soluble
11,MTESTTSSPHDAVFKTFIFTPETARDFLEIHLPEPLRKLCNLQTLRLEPTSFIEKSLRAYYSDVLWSVETSDGDGYIYCVIEHQSSAEKNMAFRPMRYATAAMQSHLDKGYDRVPLVVPLLFYHGETSPYPYSLNWLDEFDDPQLARQLYTEAFPLVDITIVPDDEIMQHRRIALLELIQKHIRDHDLIGMVDRITTLLVRGFTNDSQLQTLFNYLLQCGDTSRFTRFIQEIAERSPLQKERLMTIAERLRQEGHQIGWQEGKLVGLQQGKLEGLQEGMHEQAIKIALRMLEQGIDRDQVLAATQLSEADLAANNH,not soluble
12,MPTLRPESPEEVQEAVRAYPRLRAQGGGTKPALSTPKEGEVLLDLSRLRGLLAYEPEEFVFTAFAGTPIAEVEEALRAHGQYLPFDPPLAGKGATLGGTVAAGLSGPLRHRYGGLRDFLLGVRFVDGEGKVVRGGGKVVKNAAGFPFHRLMVGALGAFGVMVELSFKVFPRPRTTRTLRVRREGLEEALADLERLRLLPLDLLALDFIPPATLELRLGGFERSVEARLKRLQDLLGEGEVLAEDEAHWEAVRDLGFLEGSPVWVKVPAKPHLIPRLEALPLGPRRYLDGGEVLYAGTTEEGLKALREAGLPHLVLRGAEAPLFPEPQGAFFAGVKKALDPKGRFPLG,soluble
13,MGSDKIHHHHHHMKEGKANILIIDDISSNIFALENLLMTENRTFFKATSGDEGLKLALSKPVDLIILDVQMPEMDGFEVANMLKSNKRTKDIPILFASAELKEQKNMLKGLEEGAIDYLFKPLDPEITKAKVNMLIRLELQRKEMVEINSALEKSAILINNCLDIICTIDAETFKFEAFNVAMTNVLGYSSEEITSQSLLFFLQESDREFIKNLKKSDSNTGSFEIQIICKDSSIKWLQWNIVVKGGKWFSNARDITERKKKDDEIIRLNQDLHENIQQLENANKELESFSYSVSHDLRAPLRSINNYAQMLEDAFAAQMDEKSTRLLGNIKRNAFRMDTLIDDLLAFSRLGRKPVQKQSINMNDLVQHVYADMQGTFKGEFVLPALPDIDADYNLLKQVVVNLLSNAIKYSGKIEEPRIEVGYTKNPNAVVYYIKDNGAGFDMEYSDKLFGVFQRLHSTKEFEGTGVGLAIVKRIVEKHGGTIWAEAKVGEGATFYFSLPAPV,not soluble
